Data: the supplement of paper PMC5998384

Legend:
HeLa Kyoto [1] = assay: solubility change mitosis vs G1/S (difference of NP-40 vs SDS log2 ratios) (log2 ratio difference); higher = more soluble in mitosis
HeLa Kyoto [2] = assay: melting temperature (median over replicates), in situ; higher = more thermally stable
HeLa Kyoto [3] = assay: thermal stability score vs G1/S (z-score of summed log2 fold changes over temperatures); higher = more thermally stable than in G1/S
HeLa Kyoto [4] = assay: solubility in G1/S (NP-40 vs SDS abundance) (log2 ratio); higher = more soluble; conditions: cell cycle stage: G1/S
[5] = cell cycle stage: early G1 (4.5 h after nocodazole release)
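Throughout, for melting temperature (median over replicates), in situ: HeLa Kyoto cells synchronized by double thymidine or nocodazole block, proteins quantified by TMT10plex mass spectrometry, three independent biological replicates.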
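Throughout, for solubility change mitosis vs G1/S (difference of NP-40 vs SDS log2 ratios): synchronized HeLa Kyoto cells (double thymidine block for G1/S, nocodazole release for mitosis), protein amounts in NP-40 versus SDS lysates quantified by mass spectrometry, three biological replicates.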
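Throughout, for solubility in G1/S (NP-40 vs SDS abundance): HeLa Kyoto cells arrested at G1/S by double thymidine block, proteins quantified by TMT10plex mass spectrometry in mild NP-40 versus SDS extracts, three biological replicates.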
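Throughout, for thermal stability score vs G1/S (z-score of summed log2 fold changes over temperatures): synchronized HeLa Kyoto cells, proteins quantified by TMT10plex mass spectrometry, three biological replicates, mitosis taken 0.5 h after nocodazole release, G1/S directly after double thymidine block.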

Sequence	solubility change mitosis (log2) (HeLa Kyoto [1])	melting temperature (HeLa Kyoto [2]; cell cycle stage: G1/S)	melting temperature (HeLa Kyoto [2]; cell cycle stage: mitosis)	thermal stability score (HeLa Kyoto [3]; [5])	thermal stability score (HeLa Kyoto [3]; cell cycle stage: mitosis)	solubility in G1/S (log2) (HeLa Kyoto [4])
MIAAPEIPTDFNLLQESETHFSSDTDFEDIEGKNQKQGKGKTCKKGKKGPAEKGKGGNGGGKPPSGPNRMNGHHQQNGVENMMLFEVVKMGKSAMQSVVDDWIESYKHDRDIALLDLINFFIQCSGCKGVVTAEMFRHMQNSEIIRKMTEEFDEDSGDYPLTMAGPQWKKFKSSFCEFIGVLVRQCQYSIIYDEYMMDTVISLLTGLSDSQVRAFRHTSTLAAMKLMTALVNVALNLSINMDNTQRQYEAERNKMIGKRANERLELLLQKRKELQENQDEIENMMNAIFKGVFVHRYRDAIAEIRAICIEEIGIWMKMYSDAFLNDSYLKYVGWTMHDKQGEVRLKCLTALQGLYYNKELNSKLELFTSRFKDRIVSMTLDKEYDVAVQAIKLLTLVLQSSEEVLTAEDCENVYHLVYSAHRPVAVAAGEFLYKKLFSRRDPEEDGMMKRRGRQGPNANLVKTLVFFFLESELHEHAAYLVDSMWDCATELLKDWECMNSLLLEEPLSGEEALTDRQESALIEIMLCTIRQAAECHPPVGRGTGKRVLTAKEKKTQLDDRTKITELFAVALPQLLAKYSVDAEKVTNLLQLPQYFDLEIYTTGRLEKHLDALLRQIRNIVEKHTDTDVLEACSKTYHALCNEEFTIFNRVDISRSQLIDELADKFNRLLEDFLQEGEEPDEDDAYQVLSTLKRITAFHNAHDLSKWDLFACNYKLLKTGIENGDMPEQIVIHALQCTHYVILWQLAKITESSSTKEDLLRLKKQMRVFCQICQHYLTNVNTTVKEQAFTILCDILMIFSHQIMSGGRDMLEPLVYTPDSSLQSELLSFILDHVFIEQDDDNNSADGQQEDEASKIEALHKRRNLLAAFCKLIVYTVVEMNTAADIFKQYMKYYNDYGDIIKETMSKTRQIDKIQCAKTLILSLQQLFNEMIQENGYNFDRSSSTFSGIKELARRFALTFGLDQLKTREAIAMLHKDGIEFAFKEPNPQGESHPPLNLAFLDILSEFSSKLLRQDKRTVYVYLEKFMTFQMSLRREDVWLPLMSYRNSLLAGGDDDTMSVISGISSRGSTVRSKKSKPSTGKRKVVEGMQLSLTEESSSSDSMWLSREQTLHTPVMMQTPQLTSTIMREPKRLRPEDSFMSVYPMQTEHHQTPLDYNRRGTSLMEDDEEPIVEDVMMSSEGRIEDLNEGMDFDTMDIDLPPSKNRRERTELKPDFFDPASIMDESVLGVSMF [STAG2]	-0.0337	52.9 °C	51.6 °C	-0.506	-0.478	-0.185
MIAHKQKKTKKKRAWASGQLSTDITTSEMGLKSLSSNSIFDPDYIKELVNDIRKFSHMLLYLKEAIFSDCFKEVIHIRLEELLRVLKSIMNKHQNLNSVDLQNAAEMLTAKVKAVNFTEVNEENKNDLFQEVFSSIETLAFTFGNILTNFLMGDVGNDSLLRLPVSRETKSFENVSVESVDSSSEKGNFSPLELDNVLLKNTDSIELALSYAKTWSKYTKNIVSWVEKKLNLELESTRNMVKLAEATRTNIGIQEFMPLQSLFTNALLNDIESSHLLQQTIAALQANKFVQPLLGRKNEMEKQRKEIKELWKQEQNKMLEAENALKKAKLLCMQRQDEYEKAKSSMFRAEEEHLSSSGGLAKNLNKQLEKKRRLEEEALQKVEEANELYKVCVTNVEERRNDLENTKREILAQLRTLVFQCDLTLKAVTVNLFHMQHLQAASLADSLQSLCDSAKLYDPGQEYSEFVKATNSTEEEKVDGNVNKHLNSSQPSGFGPANSLEDVVRLPDSSNKIEEDRCSNSADITGPSFIRSWTFGMFSDSESTGGSSESRSLDSESISPGDFHRKLPRTPSSGTMSSADDLDEREPPSPSETGPNSLGTFKKTLMSKAALTHKFRKLRSPTKCRDCEGIVVFQGVECEECLLVCHRKCLENLVIICGHQKLPGKIHLFGAEFTQVAKKEPDGIPFILKICASEIENRALCLQGIYRVCGNKIKTEKLCQALENGMHLVDISEFSSHDICDVLKLYLRQLPEPFILFRLYKEFIDLAKEIQHVNEEQETKKNSLEDKKWPNMCIEINRILLKSKDLLRQLPASNFNSLHFLIVHLKRVVDHAEENKMNSKNLGVIFGPSLIRPRPTTAPITISSLAEYSNQARLVEFLITYSQKIFDGSLQPQDVMCSIGVVDQGCFPKPLLSPEERDIERSMKSLFFSSKEDIHTSESESKIFERATSFEESERKQNALGKCDACLSDKAQLLLDQEAESASQKIEDGKTPKPLSLKSDRSTNNVERHTPRTKIRPVSLPVDRLLLASPPNERNGRNMGNVNLDKFCKNPAFEGVNRKDAATTVCSKFNGFDQQTLQKIQDKQYEQNSLTAKTTMIMPSALQEKGVTTSLQISGDHSINATQPSKPYAEPVRSVREASERRSSDSYPLAPVRAPRTLQPQHWTTFYKPHAPIISIRGNEEKPASPSAAVPPGTDHDPHGLVVKSMPDPDKASACPGQATGQPKEDSEELGLPDVNPMCQRPRLKRMQQFEDLEGEIPQFV [ARHGAP29]	-0.0634	50.5 °C	51.1 °C	1	1.36	-0.185
MIASHLLAYFFTELNHDQVQKVDQYLYHMRLSDETLLEISKRFRKEMEKGLGATTHPTAAVKMLPTFVRSTPDGTEHGEFLALDLGGTNFRVLWVKVTDNGLQKVEMENQIYAIPEDIMRGSGTQLFDHIAECLANFMDKLQIKDKKLPLGFTFSFPCHQTKLDESFLVSWTKGFKSSGVEGRDVVALIRKAIQRRGDFDIDIVAVVNDTVGTMMTCGYDDHNCEIGLIVGTGSNACYMEEMRHIDMVEGDEGRMCINMEWGAFGDDGSLNDIRTEFDQEIDMGSLNPGKQLFEKMISGMYMGELVRLILVKMAKEELLFGGKLSPELLNTGRFETKDISDIEGEKDGIRKAREVLMRLGLDPTQEDCVATHRICQIVSTRSASLCAATLAAVLQRIKENKGEERLRSTIGVDGSVYKKHPHFAKRLHKTVRRLVPGCDVRFLRSEDGSGKGAAMVTAVAYRLADQHRARQKTLEHLQLSHDQLLEVKRRMKVEMERGLSKETHASAPVKMLPTYVCATPDGTEKGDFLALDLGGTNFRVLLVRVRNGKWGGVEMHNKIYAIPQEVMHGTGDELFDHIVQCIADFLEYMGMKGVSLPLGFTFSFPCQQNSLDESILLKWTKGFKASGCEGEDVVTLLKEAIHRREEFDLDVVAVVNDTVGTMMTCGFEDPHCEVGLIVGTGSNACYMEEMRNVELVEGEEGRMCVNMEWGAFGDNGCLDDFRTEFDVAVDELSLNPGKQRFEKMISGMYLGEIVRNILIDFTKRGLLFRGRISERLKTRGIFETKFLSQIESDCLALLQVRAILQHLGLESTCDDSIIVKEVCTVVARRAAQLCGAGMAAVVDRIRENRGLDALKVTVGVDGTLYKLHPHFAKVMHETVKDLAPKCDVSFLQSEDGSGKGAALITAVACRIREAGQR [HK2]	-0.148	48.2 °C	49.1 °C	1.07	2.33	-0.166
